# According to publication PMC11784139:
# pKd: −log10 of the molar value.
# Columns and labels:
# [1] = target: 6 × His-tagged APR1 (AlmA Positive Regulator) (Acinetobacter venetianus RAG-1); test: cross-linking; 0.1% glutaraldehyde added to 5 µg purified 6 × His-tagged APR1 in 50 mM Tris-HCl (pH 8.0), 10% glycerol; 0.5–1 h at 30°C; analysed by SDS-PAGE
# [2] = tested on: T1, 6xHis-APR1 (Acinetobacter venetianus RAG-1), ORF:d17a4b85; test: EMSA; settings: EMSA: 5 mM Tris-HCl pH 7.5, 0.1 mM EDTA, 5 mM MgCl2, 10 mM KCl, 0.2 mM DTT, 30 C, 30 min, native PAGE in 0.5x TBE; MST: 50 mM PBS pH 7.2-7.4, temperature not …
# T1 sequence: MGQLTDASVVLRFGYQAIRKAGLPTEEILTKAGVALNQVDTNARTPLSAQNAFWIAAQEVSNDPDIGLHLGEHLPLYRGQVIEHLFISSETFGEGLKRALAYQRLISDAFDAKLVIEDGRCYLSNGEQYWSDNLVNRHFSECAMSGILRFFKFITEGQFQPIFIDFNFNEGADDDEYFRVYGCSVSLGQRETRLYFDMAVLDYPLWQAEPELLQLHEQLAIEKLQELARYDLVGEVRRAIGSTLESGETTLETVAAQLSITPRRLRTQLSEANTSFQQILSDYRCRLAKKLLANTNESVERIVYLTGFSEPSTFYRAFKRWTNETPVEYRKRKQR
# [3] = tested on: 6xHis-APR1 (Acinetobacter venetianus RAG-1); test: MST; settings: EMSA: 5 mM Tris-HCl pH 7.5, 0.1 mM EDTA, 5 mM MgCl2, 10 mM KCl, 0.2 mM DTT, 30 C, 30 min, native PAGE in 0.5x TBE; MST: 50 mM PBS pH 7.2-7.4, temperature not …
substance,measurement,setting,value
6 × His-tagged APR1 (AlmA Positive Regulator) (natural protein),stoichiometry N,[1],2
AGCCTACCTGATGATCAAATTGGAAAGGCGCAAATTATAGTCAATTTATTTGAAATTTACAAGACGCTCTCTTAGCAAAGCTTGTACAGATGAATTGGAAAAAACTGTCAGACAATCCTCATTTTTTTTTAACAAAAGAAGCAGAATAGTGTTGTCAGTTTGGTCAATCAACGTTAATCTAAAATTATTGTTTATTGTCACAATAACGTATCTACAGGGAAGGGCACTGC (double strand) [apR1 promoter],binding,[2],binds
almA promoter,pKd,[3],7.01
